Measured values taken from the supplement of paper PMC9170038.

How the values were obtained:
MS2 coat protein [1] = assay: apparent KD of MS2 coat protein, switch ON state; designed switch direction (-1 OFF switch, 1 ON switch): -1; higher = weaker reporter binding; conditions: FMN input: 0 or 200 uM; Eterna round: R93 (includes R88 designs)
How it was run: (§1)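 Illumina sequencing clusters were used for on-chip transcription of designed RNA switches. Titration with SNAP-549-labelled MS2 coat protein followed, in twofold steps from 0.7 or 1.5 nM to 3 µM in 100 mM Tris-HCl pH 7.5, 80 mM KCl, 4 mM MgCl2, without or with constant ligand. Apparent KD is each design's median of fits to normalised cluster binding curves.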

MS2 coat protein [2] = assay: apparent KD of MS2 coat protein, switch OFF state (with FMN for OFF switches, without FMN for ON switches); designed switch direction (-1 OFF switch, 1 ON switch): -1; higher = weaker reporter binding; conditions: FMN input: 0 or 200 uM; Eterna round: R93 (includes R88 designs)
How it was run: as §1

Sequence | apparent KD of MS2 coat protein (MS2 coat protein [1]) [nM] | apparent KD of MS2 coat protein (MS2 coat protein [2]) [nM]
AAAGUGCAAGGAUAUAUAUGAAAAGUUACGAAAGUAACAAAACAUGAGGAUCACCCAUGUAGAAGGUGCACAAA [Seclusion (MS2 riboswitches - Exlclusion 2)] | 24.6 | 18.3
AAAGUGUAAGGAUAUCUGAAAGGACACGAAAGUGACAAAGAAGAGAAGGUACAUGAGGAUCACCCAUGUAAAAA [milkweed 21] | 28.7 | 18.1
AAAUAGCAAGGAUAUACAUGAGGAUCACCCAUGUAAGGAUGAUACGUAAUAGAAGAAAGUAGAAGGUGCAAAUA [Ex 3 Tesla 6] | 42.8 | 148
AAAUAGGCAGGAUAUACAUGAAAAUUAAAAAAAAAAAAAAAACAUGAGGAUCACCCAUGUAGAAGGGUCAAAAA [Exclusion 2 - Omei 2] | 74.2 | 80.3
AAAUGACUAGGAUAUACAUGAGGAUCACCCAUGUGUAUAAAUAAAUACACAAAAGAAAGUAGAAGGAGUCAAAA [Ex 3 May 14] | 15.8 | 88.2
AAAUUGUCAGGAUAUCCAGCUAUACGAAAUAUAUAUACACGGGAGAAGGGACAUGAGGAUCACCCAUGUUUGAA [JR_Exc004_Sub702] | 34 | 27.6
AAAUUGUCAGGAUAUCCUAUAAUAAUAAAAUAGAGGAGAUAGGAGAAGGGACAUGAGGAUCACCCAUGUAAAAC [May 85] | 37.7 | 31.2
AAAUUGUGAGGAUAUCUGGAUAGGAAAAAGAAAACCUAUCCAGAGAAGGCACAUGAGGAUCACCCAUGUAAAAA [JL cataway mod 5] | 61.7 | 96.8
AACAAACAUGAGGAUCACCCAUGUCAGGAUAUGCAAAUAACAAACAACAAACAACAAAGCAGAAGGGACGACAA [Mat - Exclusion 1 - Eli mod - D51] | 22.1 | 25.6
AACAAACAUGAGGAUCACCCAUGUCAGGAUAUGCAAAUAACAAACAACAAACAACAAAGCAGAAGGGAUAGGAA [Mat - Exclusion 1 - Eli mod - D52] | 23.3 | 21.2
AACAAGUCAGGAUAUGUUAAAGGUUACGAAAGGGAUAAAGGGCAGAAGGGACAUGAGGAUCACCCAUGUAAUAA [And All that Jazx] | 48 | 38.2
AACAAGUCAGGAUAUUCGAAAAGUAAAUAAGUAAAACAAAAGAAGAAGGGACAUGAGGAUCACCCAUGUAAAUA [JR_Exc004_Sub016] | 46.1 | 27.9
AACAAGUGAGGAUAUCGGAAAAGUAAAUAAGUAAAACAAAACGAGAAGGCACAUGAGGAUCACCCAUGUAAAUA [JR_Exc004_Sub014] | 17 | 17.4
AACAGGUUAGGAUAUGUGUAACAAAUAAAAAAAAUAUAAACACAGAAGGAACAUGAGGAUCACCCAUGUUAACA [May 28] | 24.4 | 17
AACAGUACAGGAUAUACAUGAGGAUCACCCAUGUAAAAAUAAUAAAAGGGCUCAAAAAGUAGAAGGGUACUGGA [Moding Maslow revisited (73) 15] | 31.2 | 66.3
AACAGUACAGGAUAUACAUGAGGAUCACCCAUGUCACAACAAAGCAGCGCAACACAAAGUAGAAGGGUAAUGGA [Ruby 15] | 34.6 | 40.4
AACAGUACAGGAUAUACAUGAGGAUCACCCAUGUGAAAAUAAAGUGGCGUACCACAAAGUAGAAGGGUACUGAA [Mat - Exclusion 3 - JL mod - D26] | 26.7 | 124
AACAGUACAGGAUAUACAUGAGGAUCACCCAUGUGAAAAUAAAGUGGCGUACCACGAAGUAGAAGGGUACUGGA [Ruby 58] | 21.1 | 72.5
AACAGUACAGGAUAUACAUGAGGAUCACCCAUGUGAAAAUUAAGUGGAGAACCACAAGGUAGAAGGGUACUGGA [Mat - Exclusion 3 - Eli mod - D62] | 42.4 | 127
AACAGUACAGGAUAUACAUGAGGAUCACCCAUGUGAAAAUUAAGUGGGAGACCACAAAGUAGAAGGGUACUGAA [Mat - Exclusion 3 - Eli mod - D60] | 126 | 62.3
AACAGUACAGGAUAUACAUGAGGAUCACCCAUGUGAACUUCAAGUGCCGUAGCACGAAGUAGAAGGGUACUGGA | 63.4 | 497
AACAGUACAGGAUAUACAUGAGGAUCACCCAUGUGAGAAUUAAGCAGCGUAACACAAAGUAGAAGGGUAAUGGA [Ruby 19] | 39.9 | 43.9
AACAGUACAGGAUAUACAUGAGGAUCACCCAUGUGAGAAUUAAGUGGAAAACCACAAAGUAGAAGGGUACUGGA [Mat - Exclusion 3 - JL mod - D3] | 26.6 | 234

Sequence | apparent KD of MS2 coat protein (MS2 coat protein [1]) [nM] | apparent KD of MS2 coat protein (MS2 coat protein [2]) [nM]
AACAGUACAGGAUAUACAUGAGGAUCACCCAUGUGAGAAUUAAGUGGCGAACCACAAAGUAGAAGGGUACUGGA [Mat - Exclusion 3 - JL mod - D1] | 43.1 | 469
AACAGUACAGGAUAUACAUGAGGAUCACCCAUGUGAGAAUUUAGCAGCGUAACACACAGUAGAAGGGUAAUGGA [Ruby 21] | 45.4 | 39.3
AACAUGUAAGGAUAUCUAAGAAAAGAAAAGAAAGAAAAGAAAGAGAAGGUACAUGAGGAUCACCCAUGUAAGAA [EteRNA is fun!] | 32.7 | 18.3
AACAUGUGAGGAUAUAUAAGAAAAGAAAAGAAAGAAAAGAAAUAGAAGGCACAUGAGGAUCACCCAUGUAAGAA [EteRNA is fun!] | 30 | 26.2
AACGUACAUGAGGAUCACCCAUGUUAGGAUAUGCCGGGUUAGAGCCAACUAAAAAACCGUAGAAGGGACGAAAA [Bilbo Confounded 11 - Jieux - Exclusion 1] | 27.6 | 30.2
AACUGACAUGAGGAUCACCCAUGUCAGGAUAUGAUAUGUAAAAAAAAAAAAAUACUUAUCAGAAGGGACAUGGA [Design 42: Sub-opt BB] | 22.8 | 30
AACUGACAUGAGGAUCACCCAUGUCAGGAUAUGAUAUGUAAAAAAUAAAAAAUACUUAUCAGAAGGGACAUGAA [Design 43: Sub-opt C] | 15.8 | 14.4
AAGAAACAUGAGGAUCACCCAUGUCAGGAUAUCCAAGAAAGAAAGAAAGAAAGAAGAAGGAGAAGGGACAAAGG [Lucius Antonius Pedo] | 64.8 | 67.3
AAGAAACAUGAGGAUCACCCAUGUGAGGAUAUGGAAGAAAGAAAGAAAGAAAGAAGAACCAGAAGGCACAAAGG [Publius Rubrius Barbarus] | 144 | 105
AAGAAACUAGGAUAUACAAGGAAGAAAGAAAAGAAAAGAAAACAUGAGGAUCACCCAUGUAGAAGGAGUUAGAA [EteRNA is fun!] | 36.3 | 31.3
AAGAACAUAGGAUAUACAAGGAAGAAAGAAAAGAAAAGAAAACAUGAGGAUCACCCAUGUAGAAGGAUGUAGAA [EteRNA is fun!] | 24.4 | 24.8
AAGAACCUAGGAUAUACUUGGGUAACUAAUAAACUGAUAUAACAUGAGGAUCACCCAUGUAGAAGGAGGAGAAA [JR_Exc002_Sub204] | 50.1 | 62.4
AAGAACGGAGGAUAUACAUGAGGAUCACCCAUGUAAAAGAAAGAGGGAAAAGAGAAAAGUAGAAGGCCGAAGAA [Haaibre Alexander IV] | 28 | 60.3
AAGAACUCAGGAUAUACAAAAUAAAAGAAAAGAAAGAAAGAACAUGAGGAUCACCCAUGUAGAAGGGAGAAGAA [Sobekkare Sobekneferu] | 61.2 | 32.4
AAGAACUCAGGAUAUACAUGAGGAUCACCCAUGUAAAAGAAAGAAGGGAAAGAGAAAAGUAGAAGGGAGAAGAA [Niumateped] | 17.5 | 23.8
AAGAAGACAGGAUAUACAUGAGGAUCACCCAUGUAAAAGAAAGAAAGGGAAAAGAAAAGUAGAAGGGUCAAGAA [Khepermaatre-setpenptah Ramesses X] | 37.6 | 51.4
AAGAAGCGAGGAUAUACAUGAGGAUCACCCAUGUAAAAGAAAGAAAAGGGAAAGAAAAGUAGAAGGCGCAAGAA [Nebpehtire Ahmose I, Ahmosis I] | 53 | 177
AAGAAGGCAGGAUAUACAUGAAAGAAAGAAAAGAAAAGAAAACAUGAGGAUCACCCAUGUAGAAGGGCCAAGAA [EteRNA is fun!] | 29.8 | 109
AAGAAGGUAGGAUAUACAUGAGGAUCACCCAUGUAAAAGAAAGAAGGGAAAGAGAAAAGUAGAAGGACCAAGAA [Rudamon] | 33.4 | 55.3
AAGAAGUCAGGAUAUGCGAAGGCGUCUGAUAGACGAGGCUAGCAGAAGGGACAUGAGGAUCACCCAUGUAAAGA [Mat - Exclusion 4 - D83] | 45 | 55
AAGAAGUCAGGAUAUGCUAAAGAAAUAAAAAGAAAGAAAGAACAUGAGGAUCACCCAUGUAGAAGGGACAAGAA [Seheqenre Sankhptahi] | 72.9 | 38.9
AAGAAGUCAGGAUAUGCUGAUAGUAAAUUGAGUGAUGAGUAGCAGAAGGGACAUGAGGAUCACCCAUGUAAAGA [Opal 12] | 45.4 | 32.6
